Key:
[1] = biological target: T1, human LGR7 (Homo sapiens, UniProt Q9HBX9); test: Agonist assay, stimulation of β-gal expression in SK-N-MC/CRE-β-gal cells; format: cell-based; design: expressed in transfected cells; host or cells: SK-N-MC/CRE-β-gal
T1 sequence (Q9HBX9 1-757): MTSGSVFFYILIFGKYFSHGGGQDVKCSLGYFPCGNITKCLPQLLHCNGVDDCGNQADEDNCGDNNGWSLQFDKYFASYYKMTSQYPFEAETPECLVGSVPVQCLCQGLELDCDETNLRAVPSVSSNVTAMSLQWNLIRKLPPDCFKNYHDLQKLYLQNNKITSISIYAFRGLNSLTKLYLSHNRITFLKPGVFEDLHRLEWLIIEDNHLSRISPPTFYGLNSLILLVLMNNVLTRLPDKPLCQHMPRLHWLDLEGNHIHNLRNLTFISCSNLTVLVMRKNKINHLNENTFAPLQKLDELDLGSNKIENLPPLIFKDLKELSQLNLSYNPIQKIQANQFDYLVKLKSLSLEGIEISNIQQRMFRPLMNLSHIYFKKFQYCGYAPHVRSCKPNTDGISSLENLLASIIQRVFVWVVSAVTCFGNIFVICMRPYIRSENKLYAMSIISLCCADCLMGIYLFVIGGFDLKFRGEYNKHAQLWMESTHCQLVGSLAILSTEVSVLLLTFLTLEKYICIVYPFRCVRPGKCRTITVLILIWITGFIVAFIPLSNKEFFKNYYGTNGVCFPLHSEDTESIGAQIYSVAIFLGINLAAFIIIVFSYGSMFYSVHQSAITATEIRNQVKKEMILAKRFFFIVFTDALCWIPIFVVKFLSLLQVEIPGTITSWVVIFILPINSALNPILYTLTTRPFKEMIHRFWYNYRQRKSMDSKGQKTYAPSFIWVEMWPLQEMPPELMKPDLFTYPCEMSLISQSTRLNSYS
Experimental: FIG. 1 provides a characterization of mutant relaxin-3 peptides as ligands for human GPCR135, GPCR142, and LGR7. The truncated peptides were tested for their GPCR135 and GPCR142 agonist activity using SK-N-MC/CRE-β-gal cells expressing either human GPCR135 (A) or GPCR142 (B). Agonists for GPCR135 or GPCR142 inhibit forskolin induced β-galactosidase (β-gal) expression. The LGR7 agonist activity of the truncated peptides was tested using SK-N-MC/CRE-β-gal cells expressing Gαs-linked human LGR7 (C). Human relaxin-3 was used as positive control in both cases. β-gal expression was measured by colorimetric assay using CPRG as the substrate and reading the absorbance at 570 nm.
All peptides were tested for their GPCR135, GPCR142, and LGR7 agonist activities in SK-N-MC/CRE cells expressing the relevant receptors as described by Liu et al., 2005b. […] An increase in cAMP concentration in these cells is associated with increased β-gal expression, which can be measured using Chlorophenol Red-β-D-Galactopyranoside (CRGP) as a substrate and reading the optical absorbance at 570 nm. […] The results were analyzed using GraphPad Prism 4.0 software. […] The agonism and antagonism of peptides for rat LGR7 was assayed using a cAMP luminescence assay. […] The cAMP in the cells was measured with a cAMP detection kit (DiscoveRx HitHunter, Cat. #90-0041) according to the manufacturer's protocol. […]

[2] = biological target: human GPCR142 (Homo sapiens, UniProt Q8TDU9); test: Radioligand binding assay, 125I-R3/I5 tracer, COS-7 cells expressing GPCR142; design: expressed in transfected cells; host or cells: COS-7
Description: COS-7 cells in 24-well tissue culture plates transiently expressing GPCR135, GPCR142 or LGR7 were used in radioligand binding assays as described by Liu et al., 2005a, J. Biol. Chem., 280:292-300. ^125I-Relaxin-3/INSL5 (^125I-R3/I5), a radiolabeled chimeric peptide with the human relaxin-3 B-chain and the human INSL5 A-chain (Liu et al., 2005b), was used at a final concentration of 50 pM as the tracer to characterize the binding properties of all truncated relaxin-3 peptides for GPCR135 and GPCR142. ^125I-relaxin-2 (PerkinElmer Biosciences, Boston) was used at a final concentration of 50 pM to characterize the binding properties of the truncated peptides for the relaxin receptor (LGR7). The results were analyzed by GraphPad Prism 4.0 software (Graphpad, San Diego). The IC50 values, which are the ligand concentrations that inhibited 50% of the maximum specific binding, were then calculated.

Sequence of human GPCR142 (Q8TDU9 whole entry, the tested form may be a part): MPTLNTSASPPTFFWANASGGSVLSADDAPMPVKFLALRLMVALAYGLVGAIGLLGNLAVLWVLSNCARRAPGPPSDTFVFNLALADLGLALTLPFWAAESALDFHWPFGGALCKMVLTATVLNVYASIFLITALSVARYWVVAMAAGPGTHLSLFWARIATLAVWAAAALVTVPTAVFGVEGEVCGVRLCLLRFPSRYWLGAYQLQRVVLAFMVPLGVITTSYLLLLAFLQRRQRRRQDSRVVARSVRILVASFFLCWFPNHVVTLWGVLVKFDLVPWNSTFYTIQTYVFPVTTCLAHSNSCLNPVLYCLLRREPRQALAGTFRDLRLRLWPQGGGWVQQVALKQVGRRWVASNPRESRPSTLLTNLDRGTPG

R3(BΔ23-27)R: Relaxin-3 mutant: B-chain SEQ ID NO:15 (Gly23-Trp27 deleted plus C-terminal Arg), relaxin-3 A-chain SEQ ID NO:13
EC50 ([1]; human LGR7 agonist response, mean ± SEM, NA = no agonist activity observed): > 1000 nM
agonist activity at human LGR7 ([1]; stimulation of β-gal expression): no LGR7 agonist activity
affinity of human GPCR142 [2]: high affinities

From patent US8299028B2, “Chimeric peptide antagonist for GPCR135 or GPCR142” (Janssen Pharmaceutica NV, priority 2007, dated 2012)
